Measurements published in publication PMC10180619 (Nature Communications, 2023).

Target: T1, SARS-CoV-2 WT (Wuhan-1) receptor binding domain (SARS-CoV-2, Wuhan-Hu-1, UniProt P0DTC2, biotin (EZ-Link Sulfo-NHS-LC-Biotin, average of four biotins per RBD molecule))
T1 construct: source: bought: Acro Biosystems (Cat #SPD-C52H3)
Experiment: BLI
Conditions: both partners purified

B1: ADI-81654 (Fab, V domains shown)
VH: QVQLKQSGPTLVKPTQTLTLTCTFSGFSLSTYGVGVGWIRQPPGKALEWLALIYYDDDKRYSPSLKSRLTITKDTSQNQVVLTMTNMDPVDTATYYCARHTIATIFDFDSWGQGTLVTVSS
VL: QSVLTQPASVSGSPGQSITISCTGTSSDVGGHNYVSWYQQHPGKAPKLMIYEVSNRPSGVSNRFSGSKSGNTASLTISGLQAEDEADYSCSSYASSTSPVVFGGVTKLTVL
- Kd: 56 nM
